Assay results taken from the supplement of paper PMC9732359.
± gives the uncertainty stated by the source.

Assay: protein stability index of a GFP-peptide fusion (yeast GPS) (PSI 1-4); higher = more stable; sorted into four equal gates, so the index is relative within each strain
Procedure, shortened: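 For each peptide, the protein stability index sums the read frequency in every gate after multiplying it by the gate number. Read frequencies came from plasmids that were PCR-amplified from each gate and Illumina-sequenced, with reads assigned to strains by barcodes. The gates were four equal bins of GFP/Cherry fluorescence ratio applied to mid-log yeast in leucine-free medium carrying a pooled library of tiled 17-residue yeast protein peptides fused downstream of GFP on a Cherry-expressing plasmid.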

| Sequence | protein stability index (doa10∆) | protein stability index (pdr5∆) | protein stability index (san1∆) | protein stability index (ubr1∆) |
| --- | --- | --- | --- | --- |
| EQPCVDIISGKIHSILP [YJR042W/NUP85] | 3.02 ± 0.067 | 3.07 ± 0.1 | 3 ± 0.064 | 3 ± 0.053 |
| NNRMGSYDCTGVNELAP [POP1] | 2.63 ± 0.099 | 2.42 ± 0.076 | 2.74 ± 0.085 | 2.79 ± 0.059 |
| DLTMGQVGERIKQTFKN [RPO21] | 3.31 ± 0.15 | 2.81 ± 0.19 | 3.25 ± 0.073 | 3.23 ± 0.11 |
| SMILGVAASIIPFPDHN [RPB2] | 2.21 ± 0.12 | 2.41 ± 0.12 | 2.27 ± 0.21 | 2.8 ± 0.094 |
| TWNGSPFDNSTEEKCKN [YJL039C/NUP192] | 3.1 ± 0.084 | 3.38 ± 0.081 | 3.26 ± 0.066 | 3.33 ± 0.073 |
| QSFQNPFTASQSNINTN [YIL149C/MLP2] | 2.57 ± 0.067 | 2.55 ± 0.044 | 2.62 ± 0.053 | 2.73 ± 0.043 |
| DAYYDLELRNSVMDDIL [PRP8] | 2.98 ± 0.055 | 3.04 ± 0.044 | 2.93 ± 0.049 | 3.09 ± 0.036 |
| GKILTIKQQQQQQQQQN [YML103C/NUP188] | 2.77 ± 0.049 | 3.13 ± 0.053 | 3.12 ± 0.048 | 2.96 ± 0.049 |
| EGKYIVDVAKDINVKDL [RPT6] | 3.44 ± 0.12 | 3.21 ± 0.11 | 2.67 ± 0.14 | 3.24 ± 0.093 |
| NANIFSSVKCFGPIKVE [FAS1] | 2.04 ± 0.068 | 1.63 ± 0.046 | 2.17 ± 0.067 | 1.51 ± 0.058 |
| GGDVVKFQKLLQNSERD [SMC4] | 3.15 ± 0.073 | 3.11 ± 0.049 | 3.06 ± 0.047 | 2.96 ± 0.052 |
| KRYTSEGTRNRFSYSPP [YMR129W/POM152] | 3.09 ± 0.088 | 3.09 ± 0.063 | 2.92 ± 0.043 | 3.09 ± 0.043 |
| IFKGIGGNFKDLSTLVH [GAL11] | 2.07 ± 0.071 | 1.74 ± 0.042 | 1.83 ± 0.073 | 1.85 ± 0.067 |
| IVEINNVSNTFNKTTNI [YJL041W/NSP1] | 2.87 ± 0.048 | 2.9 ± 0.05 | 2.71 ± 0.046 | 2.86 ± 0.038 |
| GLTLSTTNLDIDLLTFQ [RPP1] | 2.94 ± 0.067 | 3.04 ± 0.06 | 3.16 ± 0.056 | 2.86 ± 0.05 |
| TNKDNKAELIKPIQNGE [ARP9] | 3.34 ± 0.071 | 3.14 ± 0.083 | 3.4 ± 0.046 | 3.16 ± 0.072 |
| HDNHGNKLGNKRLTEDE [CDC53] | 2.51 ± 0.091 | 2.84 ± 0.069 | 2.37 ± 0.052 | 3.17 ± 0.06 |
| RTKSQVIEEDYDDEQNT [IRR1] | 2.4 ± 0.071 | 2.83 ± 0.15 | 2.38 ± 0.099 | 1.83 ± 0.16 |
| ASKVLLKIFLYLESLFA [IRR1] | – | – | 2.02 ± 0.24 | – |
| QKNFMDQFQWILRKPGK [RRI2] | 2.42 ± 0.14 | 2.66 ± 0.12 | 2.67 ± 0.15 | 2.49 ± 0.091 |
| KLVRDSFTSATERHIQV [PRE7] | 2.78 ± 0.075 | 2.9 ± 0.055 | 3.17 ± 0.055 | 2.37 ± 0.057 |
| NLNDAGLALQLFKKLKE [RPN2] | – | 2.69 ± 0.23 | 2.51 ± 0.24 | 3.19 ± 0.28 |
| VVKASELDQFWQEYSSV [SRP14] | 3.04 ± 0.061 | 2.9 ± 0.071 | 3.14 ± 0.072 | 3.27 ± 0.048 |
| GLKYALATGNWGEQKKA [RPB2] | 2.58 ± 0.097 | 2.85 ± 0.075 | 3.01 ± 0.082 | 2.8 ± 0.063 |
| CLKRGWGHPTRMLLNLC [BRR2] | – | 3.14 ± 0.14 | 3.23 ± 0.079 | – |
| MLLLNDSVENSSNILED [SRB8] | 2.65 ± 0.078 | 2.57 ± 0.078 | 2.58 ± 0.065 | 2.38 ± 0.061 |
| YASKINRAEGPEELARI [RGR1] | 3.31 ± 0.12 | 3.26 ± 0.085 | 3.31 ± 0.067 | 3.24 ± 0.071 |

| Sequence | protein stability index (doa10∆) | protein stability index (pdr5∆) | protein stability index (san1∆) | protein stability index (ubr1∆) |
| --- | --- | --- | --- | --- |
| RYVNLLGVTYSSPTLAT [PRE4] | 1.12 ± 0.11 | 1.35 ± 0.13 | 1.47 ± 0.17 | 1.1 ± 0.12 |
| IALSRRFLLNGRVKALE [YDL116W/NUP84] | 1.25 ± 0.062 | 1.3 ± 0.058 | 1.19 ± 0.13 | 1.24 ± 0.035 |
| SKPSTASPSAHTSSSDG [RPN4] | 2.71 ± 0.064 | 3.04 ± 0.064 | 2.66 ± 0.05 | 2.92 ± 0.045 |
| SNKSNSTNESNKSISDE [SSN2] | 3.04 ± 0.077 | 3.05 ± 0.1 | 3.05 ± 0.069 | 3.09 ± 0.087 |
| YISLLKLQGLYENIPIY [YDL116W/NUP84] | 1.67 ± 0.06 | 1.42 ± 0.045 | 1.59 ± 0.12 | 1.25 ± 0.041 |
| RGYTCQFVDMVLPNTAL [FAS1] | 1.75 ± 0.075 | 1.88 ± 0.048 | 1.32 ± 0.089 | 1.53 ± 0.05 |
| QIAKFVVGLGERVSPTD [RPT1] | 2.62 ± 0.099 | 1.33 ± 0.04 | 2.05 ± 0.13 | 1.38 ± 0.051 |
| QHTTESDNISRKYEISF [RPB2] | 3.16 ± 0.11 | 3.17 ± 0.088 | 2.92 ± 0.098 | 3.2 ± 0.11 |
| VSNPIRKVFKPSQGMVV [FAS1] | 3.08 ± 0.068 | 2.74 ± 0.061 | 2.87 ± 0.14 | 2.66 ± 0.068 |
| IAATAVASLVLARGHRV [RPL4A] | 2.6 ± 0.22 | 1.93 ± 0.19 | 2.08 ± 0.24 | 1.93 ± 0.09 |
| SPIGFTNSPQISVTRQV [SMC2] | 2.92 ± 0.052 | 3.09 ± 0.047 | 2.95 ± 0.043 | 2.79 ± 0.034 |
| VLPDADVKLLHSQFMKD [YJL039C/NUP192] | – | 2.21 ± 0.12 | – | 2.27 ± 0.25 |
| DMVKLDINPPLVFILAV [RRP42] | 2.69 ± 0.068 | 2.3 ± 0.043 | 2.2 ± 0.07 | 2.19 ± 0.035 |
| RGFSKDLKSKADKLADM [RRP6] | 3.34 ± 0.28 | – | – | – |
| VFLYFEDNAGVIANPKG [RPL23A] | 2.43 ± 0.11 | 1.96 ± 0.051 | 2.27 ± 0.12 | 1.9 ± 0.047 |
| AAREKKIRELEAELSST [YIL149C/MLP2] | 2.46 ± 0.29 | 3.25 ± 0.25 | – | 2.89 ± 0.15 |
| LPQCIIPSSYIKRTDEG [ARP7] | 2.77 ± 0.1 | 2.59 ± 0.068 | 2.13 ± 0.099 | 2.49 ± 0.065 |
| LQKALTVKTNDELMVIY [RPN8] | 2.33 ± 0.11 | 1.89 ± 0.067 | 1.84 ± 0.13 | 2.65 ± 0.061 |
| IAACTGVPDDKWEQTYK [FAS1] | 1.63 ± 0.15 | 1.21 ± 0.23 | – | 1.31 ± 0.29 |
| LTKTTVNISAVDNTTEQ [YCG1] | 3.25 ± 0.11 | 3.29 ± 0.14 | 2.88 ± 0.1 | 3.24 ± 0.098 |
| IPMDFIRNVLVTVDQYV [SSN2] | 1.13 ± 0.047 | 1.58 ± 0.056 | 1.33 ± 0.091 | 1.63 ± 0.06 |
| HLRKLLDGELDFDDFLK [RET1] | 3.04 ± 0.16 | 2.95 ± 0.1 | 2.81 ± 0.12 | 2.99 ± 0.092 |
| LDFQTNKRLCDEIATIQ [RPS17A] | 2.53 ± 0.091 | 2.98 ± 0.071 | 2.96 ± 0.057 | 3.18 ± 0.072 |
| ENRFQDTLLLLPTDGGL [POP4] | 1.46 ± 0.096 | 2.12 ± 0.085 | 1.77 ± 0.11 | 2.44 ± 0.082 |
| LLRPSSKVIIKFLQVMQ [RPS22B] | 1.87 ± 0.069 | 1.61 ± 0.044 | 1.72 ± 0.13 | 1.82 ± 0.058 |
| TYIKSEITQQEKGLNEL [SMC4] | 1.88 ± 0.066 | 1.7 ± 0.059 | 2.75 ± 0.092 | 1.55 ± 0.051 |
| VSTPEKWDITTRNSNNL [BRR2] | 3.27 ± 0.14 | 3.19 ± 0.17 | 3.26 ± 0.082 | 3.04 ± 0.069 |
